Test system: MS2 coat protein
Assay: apparent KD of MS2 coat protein; higher = weaker reporter binding
Conditions: Eterna round: R107
How it was run: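 Values are apparent KD, taken as the median for each design of fits to normalised binding curves from individual clusters. The designed RNA switches were transcribed on-chip from Illumina sequencing clusters and exposed to SNAP-549-labelled MS2 coat protein at twofold increasing amounts from 0.7 or 1.5 nM to 3 µM. Titration used 100 mM Tris-HCl pH 7.5, 80 mM KCl and 4 mM MgCl2, without or with constant ligand.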

[1] = input ligand: theophylline 20 uM
[2] = input ligand: theophylline 2 mM
[3] = input ligand: tryptophan 2.4 mM

Sequence	apparent KD of MS2 coat protein (input ligand: arginine 13.2 mM) [nM]	apparent KD of MS2 coat protein (input ligand: none) [nM]	apparent KD of MS2 coat protein [1] [nM]	apparent KD of MS2 coat protein [2] [nM]	apparent KD of MS2 coat protein [3] [nM]
GCUACAUGAGGAUCACCCAUGUGUACUGAAGGAGCGGCGAAAACGCCAGGUAGGUCGCAGUAUGUGGCUCUGGGCACGAGAUGGC [#02 Same State - Arginine A]	27	37.3	40	41.3	30.5
CGCGCGACAUGAGGAUCACCCAUGUUCCCUCGAGGACCGGUACGGCCGCCACUCGAGGACAUGAGCAUCAGCCAUGUACCGGUCA [Default title]	28.8		54.6	66.2	
GGCACAUAGUCGGCCGCCACUACUAACACCUCAGACAACAUGAGGAUCACCCAUGUUCCAGAGUGUAGGACCGGGACUAUGUGCC [Minonka]	11.7		13.7	12.2	
GUGUUAUGCUCGGCCGCCACUCUGACAUGAGGAUCACCCAUGUUGUACAUGAGGAUCACCCAUGUGAGGACCGGGAGAAACACGA [Exclusion Tryptophan B GF9]	191	193	191	209	274
GGGAGGGAGGCGGCCGCCACUGAUUUUCAUAUAUAUAUAACAUGAGGAUCACCCAUGUAGAUAUACAGGACCGGGCCUUUUUUUU [aaaG]	14.6		33.8	22.8	
GAUUGGUAUAGAAGGAGCGUCGAAAAUGGGUAAACAUGAGGAUCACCCAUGUAAAGGGAACGACAGGUAGGUCGCUAUAUUAAUC [AstromonsSSArgB#30]	146	174	256	272	200
AAGACAUGAGGAUCACCCAUGUGGAGGGAUACCAGCCUGUGUGUGGGCCCUUGGCAGCUUAAAUUUAAUUUAAUUAAAUAAAUUU [Same State - Theophylline A]	27.6		41.6		34.9
AUACAUGAGGAUCACCCAUGUCAUACAGAAGGAGCGUCACAUAAGACAGGUAGGUCGCUGAUAUAUACGUCACGAAUAGUGACGA [JR_SSArginiA_Sub017]	16.8	18.6	23.5	20.4	18.6
AAGUAAACAUGAGCAAAGCUCAUGUGCGAAGGAGCGGCGGAAACGCCAGGUAGGUCGCGCACAUGAGCAUCAGCCAUGUGUGUCA [Omei Arginine B SS A v1]	11.2	37.9	89.8	58.9	52.9
ACGUAUGUCAGAAGGAGCGUCAAUAACAUGAGGAUCACCCAUGUAUUACAUAGGUAUAAUAGACAGGUAGGUCGCUGAAUUCGAA [JR_SSArginiB_Sub022]	22.4	29.2	46.4	31.2	27
AGUGUUAUAACUGAUACCAGACUCUCAUGUUUACAUGAGGAUCACCCAUGUUAUUUCUUUGUCCCUUGGCAGCAGAAUUUACACA [JR_SSTheophyB_Sub009]	142		298		343
GAUCCGUACCAGACCUUCAAUGGACUCAGUCGAGGACCGGUACGGCCGCCACUCGGAGAAGAACAUGAGGAUCACCCAUGUGAUG [theeternabot_exclusion_MS2_Trp_A_36]	23.9		47	34.9	
CAUAUAUAUUGAAGGAGCGUCGAAAAUGGGUAAACAUGAGGAUCACCCAUGUAAAGGGAACGACAGGUAGGUCGCAAUAUAUAUG [AstromonsSSArgB#4]	115	181	199	177	146
UAUCUAACGAAGGAUACCAGUACAUGAGAGUACAUGAGGAUCACCCAUGUUAGAUACGGGUACCCUUGGCAGCCUCACCUACACC [theeternabot_sameState_MS2_Theo_B_11]	40.3		71.6		58
GGAUAGGACACGGCCGCCACUAGCUAGGAUACUAGCAACAUUUCCUCACCUGAGGAUCACCCUGGUAGGACCGGGUGUCCUAUCG	134	353	569	1390	394
UAUGCACAUGAGGAUCACCCAUGUAUGGAAGGAGCGGUGAAUGAACCAGGUAGGUCGCCAUGGUGAGGAUCAUCUAUGUAAUCGU [Exclusion - Arginine A (Freestyle 7)]	38.9	86	117	128	86.8
UCACUCCUGAUGGAUACCAGUUACUAACGCAACAUGAGGAUCACCCAUGUGAACACUCAGAACCCUUGGCAGCCAGGAGAACGAA [theeternabot_sameState_MS2_Theo_B_30]	42.8		60.2		53.8
AAGCUUCGCAUAGGAAAACUAUGUGAAGCUCGAGGACCGGUACGGCCGCCACUCGUCCUCAACAUGAGGAUCACCCAUGUAAUAA [Mat - Exclusion - Trytophan A - D2]	20.7		28.6	25.9	
UGUAUGGACUGAAGGAGCGGAAGAUAGCUUGAGGAUCACCCAAGUAAUAAGGCGAAAGCCUUCCAGGUAGGUCGCAGUCCAUACU	31.4	35.2	43.1	38	38.6

Sequence	apparent KD of MS2 coat protein (input ligand: arginine 13.2 mM) [nM]	apparent KD of MS2 coat protein (input ligand: none) [nM]	apparent KD of MS2 coat protein [1] [nM]	apparent KD of MS2 coat protein [2] [nM]	apparent KD of MS2 coat protein [3] [nM]
UCGUGUGUUUCGGAUACCAGUGUGGUCGAUACAUGAGGAUCACCCAUGUUAGAGGAGGUACACCCUUGGCAGCCGGCUGUUGCGG [kdtmullin]	59.9		88.5		79.5
GCACGACAUGAGGAUCACCCAUGUGCAGAUACCAGUAGGAUAUCCUACCCUUGGCAGCUGAGUGGAUCCGGAGGACCAUGGGUAA [Same State Theophylline A GF8]	32.8		61.7		34.7
AGUCUAUGAAGAGAUACCAGUGAGAGACAUAGACAUGAGGAUCACCCAUGUGACAUGAAGCACCCUUGGCAGCUCAACGAGCUCA [Theo B SS t1]	31.4		50		39
AACACAUGAGGAUCACCCAUGUCCAUGUACCGAGGACCGGUACGGCCGCCACUCGACAUGAGGAUCACCCAUGUUCCAUGUUGUC [Same State Tryptophan A 3]	76		131	146	
UUUGCACAUGAGGAUCACCCAUGUACAGAUACCAGCCUCAUCUACGGCCCUUGGCAGCUGAGAUAAUGGUGACGUGAUGGGCUUU [Edaniser]	13.5		17.2		11.6
UCGUGUGUUUCGGAUACCAGUGAAAUCGAUACAUGAGGAUCACCCAUGUGAGAGGAUGUACACCCUUGGCAGCUGUCUGUAUCGG [asczmullin]	40.6	54.2	58.6	43.8	43
GGCGUGGUCGGAAGGAGCGACAUGAGGAUCACCCAUGUCUCCCGUUAUGGGAGUUCCUUAGGUCAGGUAGGUCGCCGACUGCGGC [#1 Exclusion - Arginine B Attempt #22 (Inspired by Omei)]	41.6	231	123	326	159
UACAUGAGGAUCACCCAUGUGUAACCAGAAGGAGCGUGCGAAAGCACAGGUAGGUCGCUGGUGGGUUUAGGUUUAAUAGGUGUAU [SSAA NP+V+V2 #4 +-Same Structure]	32.8	32.3	54.1	40.6	34.6
AUUGACGUUGCGGCCGCCACUAGGCGUUCCCGGACAUGAGGAUCACCCAUGUGCUAGAGUGUAACUAGGACCGGGUAACCUCAGC [Verevean]	124	103	290	260	176
UGAUCCUAGACUGAUACCAGUCAUGAGUACAUGAGGAUCACCCAUGUCCAGGGACUCAAUGACCCUUGGCAGCAGAACCUAGUUC [Theo B SS t7]	155		414		389
AUUAAGGAUAUGUAGACGGCGGAGAAGAGACGAGGACCGGUACGGCCGCCACUCGUGUUAGUUAACAUGAGGAUCACCCAUGUAA [#07 Tryptophan A Same State]	51.3		56.1	69.6	
AAACAUGAGGAUCACCCAUGUGGAACCGAAGGAGCGGCGCACAUGCCAGGUAGGUCGCGGGACAUGAGGACAUGAGGAUCACCCA [Same State Arginine A 3]	45.1	135	207	184	134
AAGCCCAGGACGGCCGCCACUGUAAAAUGGUGGUUCGCCUGUAAGAACAUGAGGAUCACCCAUGUCAGGACCGGGUCCACGAGUU [theeternabot_exclusion_MS2_Trp_B_46]	17.1		23.8	15.8	
GGGUGGUAGGCGGCCGCCACUGAUUUUUAUAUAUAUAUAACAUGAGGAUCACCCAUGUAGAUAUGCAGGACCGGGCCUGUUGUUU [aaaM]	21.7	25	37.8	46.1	28.3
CAGAACAUGAGGAUCACCCAUGUUAGGGAUACCAGCUCAGACAUGGGCCCUUGGCAGCUCUAUGGCUGACGAAAGUCAGCAUCUG [#16 SameState-TheophyllineA]	70.5	41.7	874	3.01	42.5
UAUCGUCAGACGGCCGCCACUAGAACAUGAGGAUCACCCAUGUACGGCCGCCCGGUAUGGGUGUCUAGGACCGGGUCUGACGAAU [(Trp1)-(Ms2)-(T)'-(M)'-(Trp2)_Design21]	22.9		37.8	39.8	
UAGAGCCAGUCGGCCGCCACUCUCCAUAUGUGAGCCUUUAAGUUCUACAUGAGGAUCACCCAUGUGAGGACCGGGACCGAAUCUA [theeternabot_exclusion_MS2_Trp_B_18]	39.7		80.3	93.8	
AGUACAUGAGGAUCACCCAUGUAUCGGUACCGAGGACCGGUACGGCCGCCACUCGCAGGACAUGAGGAUCACCCAUGUGCAGCCG [SSTA DOUBLE!!! :-D #10]	19.2	36.8	40.9	43.8	35
GCACCAGGUACGGAUACCAGACAUUGCCGUUAGGGUGAACAUGAGGAUCACCCAUGUUUUGUCCCUUGGCAGCCGUACCUGGUGC [ETB NP+V+V2 #7 Same Structure]	9.58	9.57	14.7	86.5	9.85

Source: the supplement of paper PMC9170038
